The source of these data is article PMC4508897.

For this assay, the target named is human wt Ecad-GFP (wild-type E-cadherin fused to EGFP) (human) (UniProt P12830). Description: TEM of gold nanoparticle.

In turn, “human wt Ecad-GFP (wild-type E-cadherin fused to EGFP) (from UniProt P12830 23-882) (natural protein)” yielded a percent of NPs at <15 nm from their nearest neighbour of 20.6%.
